# Results: the Immune Epitope Database (IEDB)
# Key:
# HLA-A*02:06 = assay: IEDB peptide-MHC binding, purified MHC/competitive/radioactivity; filed as Kd, often an IC50 or EC50 that approximates it; ≥ and ≤ were set here for values at or beyond the usual limits of such assays
# HLA-A*02:02 = assay: as above
# HLA-A*02:03 = assay: as above
# HLA-A*11:01 = assay: IEDB peptide-MHC binding, purified MHC/direct/fluorescence; filed as Kd, often an IC50 or EC50 that approximates it; ≥ and ≤ were set here for values at or beyond the usual limits of such assays; conditions: source organism: Mycobacterium tuberculosis
# HLA-A*02:01 = assay: IEDB peptide-MHC binding, purified MHC/competitive/fluorescence; ≥ and ≤ were set here for values at or beyond the usual limits of such assays
# HLA-B*07:02 = assay: IEDB peptide-MHC binding, purified MHC/direct/fluorescence; filed as Kd, often an IC50 or EC50 that approximates it; ≥ and ≤ were set here for values at or beyond the usual limits of such assays
# HLA-A*69:01 = assay: as above
# HLA-B*40:01 = assay: as above
# HLA-A*32:01 = assay: IEDB peptide-MHC binding, purified MHC/competitive/radioactivity; filed as Kd, often an IC50 or EC50 that approximates it; ≥ and ≤ were set here for values at or beyond the usual limits of such assays
# HLA-A*01:01 = assay: IEDB peptide-MHC binding, purified MHC/direct/fluorescence; filed as Kd, often an IC50 or EC50 that approximates it; ≥ and ≤ were set here for values at or beyond the usual limits of such assays
# HLA-A*03:01 = assay: as above; conditions: source organism: Mycobacterium tuberculosis F11
# HLA-A*26:01 = assay: IEDB peptide-MHC binding, purified MHC/competitive/radioactivity; filed as Kd, often an IC50 or EC50 that approximates it; ≥ and ≤ were set here for values at or beyond the usual limits of such assays; conditions: source organism: Dengue virus 3 Martinique/1243/1999
# [1] = source organism: Vaccinia virus WR
# [2] = source organism: Zaire ebolavirus
# [3] = source organism: Human herpesvirus 4 strain B95-8
# [4] = source organism: Mycobacterium tuberculosis F11
# [5] = source organism: Mammarenavirus brazilense
# [6] = source organism: Mycobacterium tuberculosis
# [7] = source organism: Dengue virus 3 Martinique/1243/1999
# [8] = source organism: Lymphocytic choriomeningitis virus (strain Armstrong)
sequence,measurement,setting,value
LAEYIRHRNT,Kd,HLA-A*02:06; [1],≥ 69800 nM
same,Kd,HLA-A*02:02; [1],≥ 36100 nM
same,Kd,HLA-A*02:03; [1],14000 nM
NMKPNFWSRI,Kd,HLA-A*02:06; [1],13900 nM
same,Kd,HLA-A*02:02; [1],1680 nM
same,Kd,HLA-A*02:03; [1],193 nM
RTMFLFVFR,Kd,HLA-A*11:01,94.6 nM
VRLHPLART,IC50,HLA-A*02:01; [2],≥ 331 µM
VPAPAGPIV,Kd,HLA-B*07:02; [3],23.4 nM
same,Kd,HLA-A*69:01; [3],442 nM
FLFWFLKSGA,Kd,HLA-A*02:06; [1],22.8 nM
same,Kd,HLA-A*02:02; [1],1.07 nM
same,Kd,HLA-A*02:03; [1],0.584 nM
VETPIRNEW,Kd,HLA-B*40:01; source organism: Influenza A virus (A/Moscow/346/2003(H3N2)),≥ 20000 nM
LVQYIKFIF,Kd,HLA-A*32:01; [1],19.8 nM
ILHNIYRLFT,Kd,HLA-A*02:06; [1],1210 nM
same,Kd,HLA-A*02:02; [1],125 nM
same,Kd,HLA-A*02:03; [1],10.7 nM
YIMYNILPI,Kd,HLA-A*32:01; [1],39.4 nM
VLFSGVSWT,Kd,HLA-A*02:03; source organism: Dengue virus 1 Brazil/97-11/1997,60.1 nM
ITDVQDMDP,Kd,HLA-A*01:01; source organism: Homo sapiens,12.3 µM
SAVPTEWFPT,Kd,HLA-A*32:01; source organism: Dengue virus 4 Philippines/H241/1956,≥ 34000 nM
MNEENRFVT,IC50,HLA-A*02:01; [2],41.1 µM
AVNPGGNIY,Kd,HLA-A*03:01,≥ 20 µM
same,Kd,HLA-A*01:01; [4],3 µM
ILGPDCCIE,IC50,HLA-A*02:01; source organism: Sudan ebolavirus,28.1 µM
LTDVEKRIL,Kd,HLA-A*02:06; [1],≥ 77100 nM
same,Kd,HLA-A*02:02; [1],≥ 27400 nM
same,Kd,HLA-A*02:03; [1],≥ 28500 nM
FQSHQLWAT,Kd,HLA-A*02:06; source organism: Dengue virus 1 Singapore/S275/1990,25.6 nM
LSNCVHPAV,Kd,HLA-A*02:06; [5],461 nM
same,Kd,HLA-A*02:02; [5],427 nM
same,Kd,HLA-A*02:03; [5],1100 nM
FLQGAKWYL,Kd,HLA-A*69:01; [6],465 nM
LENIIVPGL,Kd,HLA-B*40:01; [6],71 nM
APEFVTAAA,Kd,HLA-B*07:02; [4],933 nM
YQSFLFWFL,Kd,HLA-A*02:06; [1],40.1 nM
same,Kd,HLA-A*02:02; [1],0.381 nM
same,Kd,HLA-A*02:03; [1],2.5 nM
VMCSISLTY,Kd,HLA-A*32:01; [1],10.8 nM
IMTIDLDPV,Kd,HLA-A*02:06; [7],34.8 nM
same,Kd,HLA-A*02:03; [7],15.3 nM
AVLSEYETMV,Kd,HLA-A*02:06; [1],23.6 nM
same,Kd,HLA-A*02:02; [1],0.758 nM
same,Kd,HLA-A*02:03; [1],1.47 nM
GIFVDTMSI,Kd,HLA-A*02:06; [1],1620 nM
same,Kd,HLA-A*02:02; [1],2880 nM
same,Kd,HLA-A*02:03; [1],936 nM
MLYGIAQKI,Kd,HLA-A*32:01; source organism: Vaccinia virus Copenhagen,12.4 nM
RVKQWVMDT,Kd,HLA-A*02:06; [1],13500 nM
same,Kd,HLA-A*02:02; [1],3630 nM
same,Kd,HLA-A*02:03; [1],3.61 nM
VVVGDIIGV,Kd,HLA-A*02:06; [7],4.38 nM
VTLNISSKF,Kd,HLA-A*32:01; [1],10.6 nM
TTTGEIGAI,Kd,HLA-A*26:01,5.26 µM
LNMFVSDQV,Kd,HLA-A*02:06; [8],4810 nM
same,Kd,HLA-A*02:02; [8],17.6 nM
same,Kd,HLA-A*02:03; [8],879 nM
